Like-named read-outs stand apart in the source and are kept apart here.
What was measured:
Assay in all cases: Scatchard, 125I-ligand, solubilised TSHR on tubes
[1] = target: T1, human thyrotropin receptor (TSHR), wild type, full length (human, UniProt P16473 21-764)
T1 construct: whole, on cells; Full length cDNA in pcDNA5.1/FRT, stably expressed in Flp-In-CHO cells; Cyclic AMP assays: on the cells; also called TSH receptor; Wild type TSHR
Method: (§1) Firstly, dilution profiles of each TSHR preparation were set up. In these experiments, plastic tubes (Maxisorp Star; NUNC) were coated overnight at 4° C. with 200 µL of a mouse monoclonal antibody to the TSHR C-terminus at 10 µg/mL in coating buffer (0.1 mmol/L Na_2CO$_3$ pH 9.2). After washing and post-coating (10 mg/mL of BSA in water) the tubes were washed with assay buffer (10 mmol/L Tris-HCl pH 7.8, 50 mmol/L NaCl and 1 mg/mL BSA) containing 0.1% Triton X-100. In the next step, 200 µL of solubilized wild type or mutated TSHR preparations were added to the tubes and incubated overnight at 4 C. […] After aspiration of the solutions, the tubes were washed and counted in a gamma counter.

TSHR Glu107 to Ala = target: T2, TSHR Glu107 to Ala (human, UniProt P16473 21-764)
T2 construct: whole, on cells; as m1
Method: as §1

TSHR Phe130 to Ala = target: T3, TSHR Phe130 to Ala (human, UniProt P16473 21-764)
T3 construct: whole, on cells; as m1
Method: as §1

TSHR Phe134 to Ala = target: T4, TSHR Phe134 to Ala (human, UniProt P16473 21-764)
T4 construct: whole, on cells; as m1
Method: as §1

TSHR Glu157 to Ala = target: T5, TSHR Glu157 to Ala (human, UniProt P16473 21-764)
T5 construct: whole, on cells; as m1; also called Glu157 mutated to Ala
Method: as §1

TSHR Asp160 to Ala = target: T6, TSHR Asp160 to Ala (human, UniProt P16473 21-764)
T6 construct: whole, on cells; as m1
Method: as §1

TSHR Glu178 to Ala = target: T7, TSHR Glu178 to Ala (human, UniProt P16473 21-764)
T7 construct: whole, on cells; as m1; also called Glu178 mutated to Ala
Method: as §1

TSHR Tyr185 to Ala = target: T8, TSHR Tyr185 to Ala (human, UniProt P16473 21-764)
T8 construct: whole, on cells; as m1
Method: as §1

TSHR Asp203 to Ala = target: T9, TSHR Asp203 to Ala (human, UniProt P16473 21-764)
T9 construct: whole, on cells; as m1; also called Asp203 mutated to Ala
Method: as §1

TSHR Lys209 to Ala = target: T10, TSHR Lys209 to Ala (human, UniProt P16473 21-764)
T10 construct: whole, on cells; as m1
Method: as §1

TSHR Gln235 to Ala = target: T11, TSHR Gln235 to Ala (human, UniProt P16473 21-764)
T11 construct: whole, on cells; as m1
Method: as §1

TSHR Lys250 to Ala = target: T12, TSHR Lys250 to Ala (human, UniProt P16473 21-764)
T12 construct: whole, on cells; as m1
Method: as §1

TSHR Glu251 to Ala = target: T13, TSHR Glu251 to Ala (human, UniProt P16473 21-764)
T13 construct: whole, on cells; as m1
Method: as §1

TSHR Arg255 to Ala = target: T14, TSHR Arg255 to Ala (human, UniProt P16473 21-764)
T14 construct: whole, on cells; as m1; also called Arg255 mutated to Ala
Method: as §1

TSHR Arg255 to Asp = target: T15, TSHR Arg255 to Asp (human, UniProt P16473 21-764)
T15 construct: whole, on cells; as m1; also called TSHR with Arg255 mutated to Asp; Arg255 Asp mutation
Method: as §1

TSHR Thr257 to Ala = target: T16, TSHR Thr257 to Ala (human, UniProt P16473 21-764)
T16 construct: whole, on cells; as m1
Method: as §1

TSHR Trp258 to Ala = target: T17, TSHR Trp258 to Ala (human, UniProt P16473 21-764)
T17 construct: whole, on cells; as m1; also called Trp258 mutated to Ala
Method: as §1

TSHR Arg274 to Ala = target: T18, TSHR Arg274 to Ala (human, UniProt P16473 21-764)
T18 construct: whole, on cells; as m1
Method: as §1

TSHR Asp276 to Ala = target: T19, TSHR Asp276 to Ala (human, UniProt P16473 21-764)
T19 construct: whole, on cells; as m1; also called Asp276 mutated to Ala
Method: as §1

TSHR Tyr279 to Ala = target: T20, TSHR Tyr279 to Ala (human, UniProt P16473 21-764)
T20 construct: whole, on cells; as m1
Method: as §1

TSHR Ser281 to Ala = target: T21, TSHR Ser281 to Ala (human, UniProt P16473 21-764)
T21 construct: whole, on cells; as m1; also called Ser281 mutated to Ala
Method: as §1

[2] = target: T22, TSHR Arg255 to Ala and Trp258 to Ala (human, UniProt P16473 21-764)
T22 construct: whole, on cells; as m1
Method: as §1

TSHR Asp43 to Ala = target: T23, TSHR Asp43 to Ala (human, UniProt P16473 21-764)
T23 construct: whole, on cells; as m1; also called Asp43 mutated to Ala
Method: as §1

TSHR Glu61 to Ala = target: T24, TSHR Glu61 to Ala (human, UniProt P16473 21-764)
T24 construct: whole, on cells; as m1; also called Glu61 mutated to Ala
Method: as §1

[3] = target: T1, human thyrotropin receptor (TSHR), wild …; remark: listed apart in the source
[4] = target: T25, TSHR Glu157 to Ala and Asp203 to Ala (human, UniProt P16473 21-764)
T25 construct: whole, on cells; as m1

[5] = target: T26, TSHR Glu178 to Ala and Asp203 to Ala (human, UniProt P16473 21-764)
T26 construct: whole, on cells; as m1

[6] = target: T27, TSHR Tyr185 to Ala and Lys183 to Ala (human, UniProt P16473 21-764)
T27 construct: whole, on cells; as m1

[7] = target: T28, TSHR Trp258 to Ala and Tyr185 to Ala (human, UniProt P16473 21-764)
T28 construct: whole, on cells; as m1

[8] = target: T29, TSHR Arg255 to Ala and Tyr185 to Ala (human, UniProt P16473 21-764)
T29 construct: whole, on cells; as m1

[9] = target: T30, TSHR Arg255 to Ala, Lys183 to Ala and Tyr185 to Ala (human, UniProt P16473 21-764)
T30 construct: whole, on cells; as m1

[10] = target: T31, TSHR Arg255 to Ala, Trp258 to Ala and Tyr185 to Ala (human, UniProt P16473 21-764)
T31 construct: whole, on cells; as m1

B1: 9D33 MAb (antibody, V domains shown)
VH: DVQIQQPGTELVKPGASVRLSCKASGYTFTTYWMHWVKQRPGQGLEWIGEIDPSDSYTNYNQKFKGKATLTVDKSSSTAYMHLSSLTSEDSAVYYCSRNYGSGYYFDYWGQGTTLTVSS
VL: GVEMTQSPAIMSASPGEKVTMTCSASSSVSYMHWYQQKSGTSPKRWIYDTSKLASGVPARFSGSGSGTSYSLTISSMETEDAATYYCQQWSSNPWTFGGGTKLEIK
Question: For B1, which Ka [1] is on record?
Answer: The Ka was 1.8e+10 M⁻¹.

Question: What about the Ka (TSHR Glu107 to Ala) of the same binder?
Answer: Its Ka is 6e+09 M⁻¹.

Question: And the Ka (TSHR Phe130 to Ala)?
Answer: Its Ka is 9e+09 M⁻¹.

Question: What about the Ka (TSHR Phe134 to Ala) of the same binder?
Answer: Its Ka is 5e+09 M⁻¹.

Question: And the Ka (TSHR Glu157 to Ala)?
Answer: The Ka was 1.3e+10 M⁻¹.

Question: And the Ka (TSHR Asp160 to Ala)?
Answer: The Ka was 1e+10 M⁻¹.

Question: What about the Ka (TSHR Glu178 to Ala) of the same binder?
Answer: The Ka was 1.3e+10 M⁻¹.

Question: What about the Ka (TSHR Tyr185 to Ala) of the same binder?
Answer: Its Ka is 9e+09 M⁻¹.

Question: And the Ka (TSHR Asp203 to Ala)?
Answer: Its Ka is 1.4e+10 M⁻¹.

Question: And the Ka (TSHR Lys209 to Ala)?
Answer: Its Ka is 8e+09 M⁻¹.

Question: And the Ka (TSHR Gln235 to Ala)?
Answer: Its Ka is 1.1e+10 M⁻¹.

Question: What about the Ka (TSHR Lys250 to Ala) of the same binder?
Answer: The Ka was 6e+09 M⁻¹.

Question: And the Ka (TSHR Glu251 to Ala)?
Answer: The Ka was 8e+09 M⁻¹.

Question: What about the Ka (TSHR Arg255 to Ala) of the same binder?
Answer: The Ka was 8e+09 M⁻¹.

Question: And the Ka (TSHR Arg255 to Asp)?
Answer: The Ka was 1.3e+10 M⁻¹.

Question: And the Ka (TSHR Thr257 to Ala)?
Answer: The Ka was 7e+09 M⁻¹.

Question: And the Ka (TSHR Trp258 to Ala)?
Answer: The Ka was 1.2e+10 M⁻¹.

Question: And the Ka (TSHR Arg274 to Ala)?
Answer: The Ka was 5e+09 M⁻¹.

Question: What about the Ka (TSHR Asp276 to Ala) of the same binder?
Answer: Its Ka is 1.3e+10 M⁻¹.

Question: What about the Ka (TSHR Tyr279 to Ala) of the same binder?
Answer: Its Ka is 6e+09 M⁻¹.

Question: And the Ka (TSHR Ser281 to Ala)?
Answer: Its Ka is 9e+09 M⁻¹.

Question: And the Ka [2]?
Answer: Its Ka is 1.1e+10 M⁻¹.

Question: And the Ka (TSHR Asp43 to Ala)?
Answer: Its Ka is 1.4e+10 M⁻¹.

Question: And the Ka (TSHR Glu61 to Ala)?
Answer: The Ka was 9e+09 M⁻¹.

Question: What about the Ka [3] of the same binder?
Answer: Its Ka is 1.8e+10 M⁻¹.

Question: What about the Ka [4] of the same binder?
Answer: The Ka was 6e+09 M⁻¹.

Question: What about the Ka [5] of the same binder?
Answer: Its Ka is 8e+09 M⁻¹.

Question: And the Ka [6]?
Answer: Its Ka is 6e+09 M⁻¹.

Question: And the Ka [7]?
Answer: Its Ka is 9e+09 M⁻¹.

Question: What about the Ka [8] of the same binder?
Answer: Its Ka is 9e+09 M⁻¹.

Question: And the Ka [9]?
Answer: The Ka was 3e+09 M⁻¹.

Question: What about the Ka [10] of the same binder?
Answer: Its Ka is 8e+09 M⁻¹.

From US9046519 (RSR, dated 2015)
